The target in this experiment is HER2/PD-L1 BsAb (humanized bispecific IgG1 subclass antibody targeting both HER2 and PD-L1). The experiment can be described thus: BLI; Octet RED96; antibody (10 ug/ml) immobilised on Protein A biosensors; 6xHis-tagged antigens two-fold serially titrated from 100 nM; PBS with 0.02% Tween 20 and 0.1% BSA, room temperature. Background: In BLI a coated tip is dipped into the sample, and binding shifts an interference pattern.

The values that follow come from article PMC8671946.

A word on the Kd: it is a measure of binding affinity in units of concentration. A higher Kd goes with weaker binding.

Take “human epidermal growth factor receptor 2 (HER2), recombinant, 6xHis-tagged (from UniProt P04626 23-652)”: the Kd stood at 6.36 nM.
